US7737250B2, “Peptides for treating axonal damage, inhibition of neurotransmitter release and pain transmission, and blocking calcium influx in neurons” (Mount Sinai School of Medicine of New York University, priority 2003, dated 2010)

Experiments:
[1] = biological target: T1, L1-CAM-ankyrin interactions (Homo sapiens, UniProt Q01484); experiment: Ankyrin recruitment assay: ankyrinB co-localization with L1-CAM at the membrane of transfected 293 cells; type: cell-based; conditions: 1.4 μg/ml peptide for 30 minutes
T1 construct: expressed in transfected cells; host or cells: human kidney 293 cells
Description: Cell culture aid transfection: Human kidney 293 cells were cultured in DMEM medium (Gibco) supplemented with penicillin, streptomycin, L-glutamine, and 10% fetal bovine serum (Hyclone). The pMyc-L1-CAM or pL1-CAM-GFP expression constructs were transfected into cultured human kidney 293 cells using Lipofectamine plus (Invitrogen) according to manufacturer instructions. Cells were cultured for 24-48 hours and then used, or cultured continuously in the presence of 0.5 μg.mL G418 (Gibco) to select for stably transfected cells lines, to generate stable pooled lines of L1-CAM-expressing cells.
In some instances, transfected 293 cells were treated with neural growth factor (NGF) or epidermal growth factor (EGF) to stimulate phosphorylation of tyrosine 1229 (Y1229) of the L1-CAM cytoplasmic domain, and thereby inhibit ankyrin binding. In these cases, cells were treated with 50 ng/mL EGF (Gibco) or 100 ng/mL NGF (Gibco) for 1 hour prior to the assay. […]
Ankyrin and L1-CAM were detected by indirect immunofluorescence in double-labeled confocal sections through cell aggregates to permit the visualization of L1 and ankyrinB at the cell membrane. Expression of myc-L1-CAM was detected using a polyclonal anti-L1-CAM rabbit antibody. […] Ankyrin was detected using a monoclonal anti-ankyrinB mouse antibody (BD PharMingen). […]
Quantification of ankyrin immunolocalization: Confocal micrographs were then used to quantify the degree of ankyrin localization to the cell membrane of myc-L1-CAM expressing cells. Images were analyzed using ImageJ (NIH) under Macintosh OSX. The method for quantifying ankyrinB localization to the membrane uses densitometry of a line scan perpendicular to and crossing a cell-cell junction. […]
The densitometry intensity profile of the scanned line was used to determine a minimum ankyrinB signal for comparison to the value of the ankyrinB signal at the point where the maximum signal in the L1-CAM channel occurs. […] Minima were determined from the regions of the line overlapping the cytoplasm of either of the two cells. […]

[2] = test system: Cav2.2 current; experiment: Whole-cell calcium current recording in DRG neurons; type: cell-based, chick; conditions: 1.4 ng/ml peptide in recording pipette; after 2 minutes of recording
Description: Electrophysiology: Standard tight seal, whole-cell recording methods [Hamill et al.,1981 Pflugers Arch. 381, 85-10] were employed. Cells were incubated in an external solution containing 133 mM NaCl, 1 mM CaCl2, 0.8 mM MgCl2, 25 mM HEPES, 12.5 mM NaOH, 5mM glucose, 10 mM tetraethylammonium chloride, […] (pH 7.4). Experiments were performed on the stage of an inverted microscope. Recording pipettes were fabricated from microhemnatocrit tubing (Fisher) and filled with an internal recording solution containing 150 mM CsCl, 5 BAPTA, 5 MgATP, 10 HEPES (pH 7.2). All salts were obtained from Fluka. Initial pipette resistances were 0.8-1.2 MΩ. […]
Electrophysiology Data Analysis—Data was filtered at 3 kHz, acquired at 10-20 kHz and analyzed using PulseFit (HEKA) and IgorPro (WaveMetrics) on a Macintosh G3 computer. […] Such conditioning pulses have no effect on control currents recorded in the absence of GABA. During the application of the transmitter, test pulse currents measured before and after the conditioning pulse are subtracted to yield the voltage-dependent component. Test pulses measured following the conditioning pulse are subtracted from control currents (measured in the absence of GABA) to yield the voltage-independent component.

T1 sequence (Q01484 whole entry): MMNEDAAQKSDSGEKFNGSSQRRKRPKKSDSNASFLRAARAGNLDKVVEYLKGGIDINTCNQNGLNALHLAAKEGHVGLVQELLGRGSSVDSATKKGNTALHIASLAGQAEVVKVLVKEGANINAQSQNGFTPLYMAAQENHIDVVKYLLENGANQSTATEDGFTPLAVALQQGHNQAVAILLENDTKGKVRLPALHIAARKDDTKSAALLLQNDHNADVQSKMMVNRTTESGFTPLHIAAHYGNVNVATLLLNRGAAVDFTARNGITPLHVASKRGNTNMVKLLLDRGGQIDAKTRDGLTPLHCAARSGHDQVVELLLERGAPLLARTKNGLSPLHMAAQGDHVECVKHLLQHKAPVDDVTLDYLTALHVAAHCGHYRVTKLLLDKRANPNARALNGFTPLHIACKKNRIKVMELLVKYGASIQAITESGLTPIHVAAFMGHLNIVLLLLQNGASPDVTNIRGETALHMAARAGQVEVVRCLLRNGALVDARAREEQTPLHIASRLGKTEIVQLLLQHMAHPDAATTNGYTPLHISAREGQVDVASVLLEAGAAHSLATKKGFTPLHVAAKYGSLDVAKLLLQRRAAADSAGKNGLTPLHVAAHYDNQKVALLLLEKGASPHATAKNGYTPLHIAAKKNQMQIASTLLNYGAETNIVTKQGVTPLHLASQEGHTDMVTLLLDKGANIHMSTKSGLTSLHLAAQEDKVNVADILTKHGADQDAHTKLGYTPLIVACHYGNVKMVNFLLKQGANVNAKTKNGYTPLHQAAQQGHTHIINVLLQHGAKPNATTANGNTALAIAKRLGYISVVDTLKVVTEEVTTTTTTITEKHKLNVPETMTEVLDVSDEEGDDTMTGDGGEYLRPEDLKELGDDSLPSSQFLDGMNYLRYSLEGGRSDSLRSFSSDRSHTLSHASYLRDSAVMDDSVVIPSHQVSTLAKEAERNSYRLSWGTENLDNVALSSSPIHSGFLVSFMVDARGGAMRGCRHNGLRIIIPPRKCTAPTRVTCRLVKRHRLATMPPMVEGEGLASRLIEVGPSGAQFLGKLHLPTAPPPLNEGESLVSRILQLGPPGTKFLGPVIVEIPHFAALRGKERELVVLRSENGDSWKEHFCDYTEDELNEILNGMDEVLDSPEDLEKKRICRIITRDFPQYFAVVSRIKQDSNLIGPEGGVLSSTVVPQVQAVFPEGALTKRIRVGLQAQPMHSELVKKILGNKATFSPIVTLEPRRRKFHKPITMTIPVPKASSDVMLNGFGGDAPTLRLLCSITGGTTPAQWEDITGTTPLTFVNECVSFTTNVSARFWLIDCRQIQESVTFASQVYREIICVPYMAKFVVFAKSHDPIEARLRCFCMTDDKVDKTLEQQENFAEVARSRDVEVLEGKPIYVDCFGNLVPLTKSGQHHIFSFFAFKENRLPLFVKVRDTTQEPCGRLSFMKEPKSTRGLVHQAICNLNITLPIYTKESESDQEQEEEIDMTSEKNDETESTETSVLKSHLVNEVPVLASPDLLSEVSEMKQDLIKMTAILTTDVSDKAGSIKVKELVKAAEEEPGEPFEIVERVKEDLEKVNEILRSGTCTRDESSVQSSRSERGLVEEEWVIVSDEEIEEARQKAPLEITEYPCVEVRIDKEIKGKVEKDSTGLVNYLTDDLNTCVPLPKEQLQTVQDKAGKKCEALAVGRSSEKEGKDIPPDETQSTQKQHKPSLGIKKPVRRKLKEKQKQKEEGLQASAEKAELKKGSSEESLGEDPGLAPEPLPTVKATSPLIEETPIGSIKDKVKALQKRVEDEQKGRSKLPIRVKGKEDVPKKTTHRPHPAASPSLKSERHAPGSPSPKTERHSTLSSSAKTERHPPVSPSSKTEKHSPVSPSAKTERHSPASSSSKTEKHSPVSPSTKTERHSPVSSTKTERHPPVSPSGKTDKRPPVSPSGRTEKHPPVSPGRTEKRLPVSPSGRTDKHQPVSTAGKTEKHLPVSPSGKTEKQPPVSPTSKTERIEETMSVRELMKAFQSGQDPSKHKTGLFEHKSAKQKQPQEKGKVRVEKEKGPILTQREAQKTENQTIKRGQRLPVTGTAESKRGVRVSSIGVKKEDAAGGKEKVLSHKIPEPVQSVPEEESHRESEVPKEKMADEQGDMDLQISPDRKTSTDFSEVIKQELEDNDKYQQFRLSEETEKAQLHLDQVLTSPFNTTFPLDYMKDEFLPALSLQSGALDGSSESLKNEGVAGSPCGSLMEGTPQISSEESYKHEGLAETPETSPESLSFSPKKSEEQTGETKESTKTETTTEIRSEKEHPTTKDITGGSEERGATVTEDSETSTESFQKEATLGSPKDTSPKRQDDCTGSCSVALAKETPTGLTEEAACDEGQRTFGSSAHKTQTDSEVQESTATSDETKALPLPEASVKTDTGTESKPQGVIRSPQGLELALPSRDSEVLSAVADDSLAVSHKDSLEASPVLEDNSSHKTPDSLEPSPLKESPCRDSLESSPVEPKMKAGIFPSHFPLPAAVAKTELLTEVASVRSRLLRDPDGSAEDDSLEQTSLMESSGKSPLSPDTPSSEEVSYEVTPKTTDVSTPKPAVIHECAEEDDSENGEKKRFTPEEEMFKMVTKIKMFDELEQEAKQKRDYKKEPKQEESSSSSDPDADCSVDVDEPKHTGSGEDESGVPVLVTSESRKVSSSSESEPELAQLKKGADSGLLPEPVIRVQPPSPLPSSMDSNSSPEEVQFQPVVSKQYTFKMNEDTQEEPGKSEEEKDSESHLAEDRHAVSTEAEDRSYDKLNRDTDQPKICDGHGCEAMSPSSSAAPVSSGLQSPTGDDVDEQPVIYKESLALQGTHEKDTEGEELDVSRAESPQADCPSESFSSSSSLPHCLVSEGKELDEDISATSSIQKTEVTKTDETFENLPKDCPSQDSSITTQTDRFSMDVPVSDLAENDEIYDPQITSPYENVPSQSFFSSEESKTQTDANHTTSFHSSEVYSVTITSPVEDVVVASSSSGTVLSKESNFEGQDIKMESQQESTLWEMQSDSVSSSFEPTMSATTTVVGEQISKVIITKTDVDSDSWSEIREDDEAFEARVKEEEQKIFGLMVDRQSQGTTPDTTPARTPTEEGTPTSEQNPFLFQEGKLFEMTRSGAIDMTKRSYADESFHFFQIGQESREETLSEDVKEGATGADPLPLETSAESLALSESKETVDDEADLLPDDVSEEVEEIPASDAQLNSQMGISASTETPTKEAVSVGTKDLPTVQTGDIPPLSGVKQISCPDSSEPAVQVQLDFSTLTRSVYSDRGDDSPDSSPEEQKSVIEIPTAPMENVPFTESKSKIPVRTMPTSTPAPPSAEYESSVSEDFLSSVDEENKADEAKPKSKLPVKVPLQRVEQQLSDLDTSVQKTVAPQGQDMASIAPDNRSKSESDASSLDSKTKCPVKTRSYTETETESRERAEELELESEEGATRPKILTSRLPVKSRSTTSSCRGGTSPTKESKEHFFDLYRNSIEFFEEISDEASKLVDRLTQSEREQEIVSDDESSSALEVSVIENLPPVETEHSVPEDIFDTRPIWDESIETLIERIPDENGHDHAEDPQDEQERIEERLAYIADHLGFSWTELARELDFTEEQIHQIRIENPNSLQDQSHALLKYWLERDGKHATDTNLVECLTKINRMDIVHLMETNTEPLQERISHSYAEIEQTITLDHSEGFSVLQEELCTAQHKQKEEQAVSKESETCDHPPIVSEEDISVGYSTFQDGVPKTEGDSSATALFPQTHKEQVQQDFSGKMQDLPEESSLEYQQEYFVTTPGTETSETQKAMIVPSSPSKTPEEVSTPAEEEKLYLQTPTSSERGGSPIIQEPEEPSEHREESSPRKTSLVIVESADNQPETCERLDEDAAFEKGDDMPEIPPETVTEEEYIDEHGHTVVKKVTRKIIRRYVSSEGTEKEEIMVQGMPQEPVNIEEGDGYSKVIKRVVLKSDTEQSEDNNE

Q: Which “ankyrin co-localization with L1-CAM at the cell membrane (L1-CAM-ankyrin interactions)” value [1] does the source give for “RQIKIWFQNRRMKWKKFQGIFSGDENFQ [AP-Scramble]” here?
A: Its value is “no detectible effects”.

Q: What about the “inhibition of calcium current” value [2] of the same sequence?
A: Its value is “no significant effect”.

Q: Which “ankyrin co-localization with L1-CAM at the cell membrane (L1-CAM-ankyrin interactions)” value [1] does the source give for RQIKIWFQNRRMKWKKQFNEDGSFIGQF [AP-YF] here?
A: The value was “inhibited L1-CAM-ankyrin interactions”.

Q: And the “inhibition of calcium current” value [2]?
A: The value was 83+17%.
